Measured values from patent US20180282719A1 (published 2018).

T1: recombinant soluble human IL-6 receptor (SR344) (human, UniProt P08887 20-344, biotinylated (sites not given) where immobilized via streptavidin or used in phage ELISA)
T1 construct: also called soluble IL-6 receptor; membrane-type IL-6 receptor (when biotinylated and immobilized on the chip)
T1 sequence (looked up): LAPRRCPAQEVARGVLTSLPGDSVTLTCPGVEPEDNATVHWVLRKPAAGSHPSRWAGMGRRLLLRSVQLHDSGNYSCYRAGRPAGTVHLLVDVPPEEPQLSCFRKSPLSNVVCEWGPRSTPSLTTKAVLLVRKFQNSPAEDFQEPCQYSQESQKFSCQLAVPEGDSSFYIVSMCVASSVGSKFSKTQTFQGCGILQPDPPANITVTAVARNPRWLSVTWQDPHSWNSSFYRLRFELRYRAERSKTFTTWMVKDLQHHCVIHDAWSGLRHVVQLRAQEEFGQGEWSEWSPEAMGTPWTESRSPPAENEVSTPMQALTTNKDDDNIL


What was measured:
[1] = molecular target: T1, recombinant soluble human IL-6 receptor …; assay: SPR Biacore T100, biotinylated SR344 on streptavidin chip (model of membrane-type IL-6 receptor), antibody as analyte, 37 C
[2] = molecular target: T1, recombinant soluble human IL-6 receptor …; assay: SPR Biacore T100, antibody on protein A/G chip, SR344 analyte, 37 C
Experimental: Kinetic analyses of antigen-antibody reactions at pH 5.8 and pH 7.4 were carried out using a Biacore™ T100 surface plasmon resonance system (GE Healthcare) on the four antibodies: humanized PM1 antibody (WT) and H3pI/L73, CLH5/L73, and H170/L82 produced in Examples 2 and 4 (buffer: 10 mM MES (pH 7.4 or pH 5.8), 150 mM NaCl, and 0.05% TWEEN® 20 (polyoxyethelene sorbitan monolaurate)). Various antibodies were bound onto a sensor chip immobilized with recomb-protein A/G (Pierce) by amine coupling. SR344 adjusted to concentrations of 9.8 to 400 nM was injected to the chip as an analyte. […] All the measurements were carried out at 37° C. Association rate constants kₐ (1/Ms) and dissociation rate constants kd (1/s) were calculated using Biacore T100™ Evaluation Software (GE Healthcare), and dissociation constants KD (M) were calculated on the basis of those values (Table 5). Moreover, the ratio of the affinities at pH 5.8 and pH 7.4 were calculated for each clone to evaluate pH-dependent binding. All the measurements were carried out at 37° C.

[3] = molecular target: T1, recombinant soluble human IL-6 receptor …; assay: SPR Biacore T100, integrated RU of SR344 bound over ten cycles, 37 C
Experimental: The produced pH-dependent binding clones described above were analyzed using a Biacore T100™ surface plasmon resonance system (GE Healthcare) for their ability to bind to the antigen SR344 multiple times at pH 5.8 and pH 7.4. More specifically, the analysis was carried out as follows. All the measurements were carried out at 37° C. First, the sample antibodies described above were bound onto a recomb-protein A/G (Pierce)-immobilized sensor chip by amine-coupling, where the mobile phase buffer was 10 mM MES (pH 5.8), 150 mM NaCl, and 0.05% TWEEN® 20 (polyoxyethelene sorbitan monolaurate) (step 1). SR344 adjusted to a concentration of about 40 nM was injected as an analyte for 3 minutes at pH 7.4 and allowed to bind (the buffer for injected SR344 was 10 mM MES (pH 7.4), 150 mM NaCl, and 0.05% TWEEN® 20 (polyoxyethelene sorbitan monolaurate)) (step 2). Subsequently, the injection of SR344 was discontinued and a mobile phase of pH 5.8 was allowed to flow for about 70 seconds to expose the antibody/SR344 complex under acidic conditions (step 3). Ten sets of this binding (step 2)/acidity exposure (step 3) process were continuously repeated to observe the sensorgram in real-time, which is shown in FIG. 11. […] In the 10-set repetition of the binding (step 2) and acidic exposure (step 3), almost all H170/L82 and CLH5/L73 antibodies were able to bind to new antigens in each set. […]

[4] = molecular target: T1, recombinant soluble human IL-6 receptor …; assay: SPR Biacore T100, biotinylated SR344 on streptavidin chip (model of membrane-type IL-6 receptor), antibody as analyte, bound at pH 7.4, dissociation at pH 5.8, 37 C
Experimental: Binding to the membrane-type IL-6 receptor was evaluated by evaluating binding to the IL-6 receptor immobilized on a sensor chip. SR344 was biotinylated in accordance with a method known among persons with ordinary skill in the art, and the biotinylated SR344 was immobilized on the sensor chip via streptavidin using the affinity between streptavidin and biotin. All the measurements were carried out at 37° C. The mobile phase buffer was 10 mM MES (pH 5.8), 150 mM NaCl and 0.05% TWEEN® 20 (polyoxyethelene sorbitan monolaurate).
The pH-dependently-binding clones were injected under the condition of pH 7.4 to allow them to bind to SR344, and then, the pH-dependent dissociation of each clone at the pH of the mobile phase, pH 5.8, was observed. The results are shown in FIG. 21 (results for Fv1-M71, Fv1-M73, Fv3-M71, and Fv3-M73 are shown in FIG. 21, while results for other clones are shown in FIGS. 17 and 19). Analyses were carried out in the same manner as in Example 10 and the pH dependencies of the dissociation rate constants of all of the eleven types of clones are shown in Table 12.

| kd (pH 5.8)/kd (pH 7.4) [1] | pH-dependent binding (affinity ratio) relative to WT [2] [fold] | total amount of antigen bound over ten cycles relative to WT [3] [fold] | koff [4] [s⁻¹] | Binder |
| --- | --- | --- | --- | --- |
| 1 | – | – | – | humanized PM1 antibody (wild type, WT) (antibody, human IgG1, kappa, V domains shown, IgG1; also called WT-IgG1; wild type humanized anti-IL-6 receptor antibody) VH: QVQLQESGPGLVRPSQTLSLTCTVSGYSITSDHAWSWVRQPPGRGLEWIGYISYSGITTYNPSLKSRVTMLRDTSKNQFSLRLSSVTAADTAVYYCARSLARTTAMDYWGQGSLVTVSS VL: DIQMTQSPSSLSASVGDRVTITCRASQDISSYLNWYQQKPGKAPKLLIYYTSRLHSGVPSRFSGSGSGTDFTFTISSLQPEDIATYYCQQGNTLPYTFGQGTKVEIKR |
| 2.59 | 15 | – | – | H3pI/L73 (antibody, IgG1, V domains shown, tested as IgG1; also called H3pI/L73-IgG1; H3pl/L73) VH: QVQLQESGPGLVKPSETLSLTCAVSGHSISHDHAHSWVRQPPGEGLEWIGYISYSGITNYNPSLKGRVTISRDTSKNQFSLKLSSVTAADTAAYYCARSLARTTAMDYWGEGTLVTVSS VL: DIQMTQSPSSLSASVGDSVTITCQASQHISSHLNWYQQKPGKAPELLIYYGSHLHSGVPSRFSGSGSGTDFTFTISSLEAEDAATYYCGQGNRLPYTFGQGTKVEIE |
| – | > 15 | ~4 | – | H170/L82 (antibody, IgG1, V domains shown, expressed and purified as IgG (IgG1); also called H170/L82-IgG1) VH: QVQLQESGPGLVKPSETLSLTCAVSGHSISHHHAHSWVRQPPGEGLEWIGYISYSGITHYNPHLKGRVTISRDTSKNQFSLKLSSVTAADTAAYYCARVLARITAMDHWGEGTLVTVSS VL: DIQMTQSPSSLSASVGDSVTITCQASQDISSHLNWYQQKPGKAPELLIYYGSHLHSGVPSRFSGSGSGTDFTFTISSLEAEDAATYYCGQGNRLPYTFGQGTKVEIE |
| 5.56 | – | – | 0.0026 | Fv4-IgG1 (antibody, VH3-IgG1 / VL3-CK) heavy: not shown light: DIQMTQSPSSLSASVGDSVTITCQASTDISSHLNWYQQKPGKAPELLIYYGSHLLSGVPSRFSGSGSGTDFTFTISSLEAEDAATYYCGQGNRLPYTFGQGTKVEIERTVAAPSVFIFPPSDEQLKSGTASVVCLLNNFYPREAKVQWKVDNALQSGNSQESVTEQDSKDSTYSLSSTLTLSKADYEKHKVYACEVTHQGLSSPVTKSFNRGEC |
